Reference: US20210079060A1 (ALETA BIOTHERAPEUTICS, published 2021)
“And” between values parts separate entries of the source, which are not always exact repeats. Identical values can stand only once. Like-named read-outs stand apart in the source and are kept apart here.

T1: Clec12A (human, UniProt Q5QGZ9 1-265)
T1 construct: whole, on cells; also called CLL-1; MICL
T1 sequence (looked up): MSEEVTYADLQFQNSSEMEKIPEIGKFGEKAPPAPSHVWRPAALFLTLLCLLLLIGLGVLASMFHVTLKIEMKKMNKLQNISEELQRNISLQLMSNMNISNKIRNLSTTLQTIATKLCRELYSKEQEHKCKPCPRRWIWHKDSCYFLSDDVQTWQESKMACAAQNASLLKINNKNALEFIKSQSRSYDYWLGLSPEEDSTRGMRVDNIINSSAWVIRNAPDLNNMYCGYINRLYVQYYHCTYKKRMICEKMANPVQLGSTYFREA


Assays:
Clec12A [1] = biological target: T1, Clec12A; experiment: sandwich ELISA: coated with FMC63, construct titrated (x-axis ug/ml), followed by Clec12A-bio, detected by HRP-SA
Clec12A [2] = biological target: T1, Clec12A; experiment: binding to U937 cells; supernatant; MW = 46kDa
Clec12A [3] = biological target: T1, Clec12A; experiment: binding to U937 cells; supernatant
Clec12A [4] = biological target: T1, Clec12A; experiment: sandwich ELISA: coated with FMC63, construct titrated (x-axis ug/ml), followed by Clec12A-bio, detected by HRP-SA; remark: listed apart in the source
EGFR = biological target: T2, EGFR (UniProt P00533 25-1210, limits assumed); experiment: binding to EGFR positive cells (data not shown)
T2 construct: whole, on cells; also called EGFR positive cells; EGFR positive H292 cells

Row | Binder | C of the 4-P fit (midpoint) (Clec12A [1]) | EC50 (Clec12A [1]) | EC50 (Clec12A [2]) | EC50 (Clec12A [3]) | C of the 4-P fit (midpoint) (Clec12A [4]) | EC50 (Clec12A [4]) | also measured
1 | CD19 mutant #2-G4Sx4-anti CLEC12a VHH 2H3-myc-His (VHH, CD19 variant-VHH fusion) PEEPLVVKVEEGDTAVLPCLKGTSDGPTQQLTWSRESPLKPFLKYSLGVPGLGVHVRPDAISVVIRNVSQQMGGFYLCQPGPPSEKAWQPGWTVNVEGSGELFRWNVSDLGGLGCGLKNRSSEGPSSPSGKLMSPKLYVWAKDRPEIWEGEPPCLPPRDSLNQSLSQDLTMAPGSTLWLSCGVPPDSVSRGPLSWTHVHPKGPKSLLSLELKDDRPAREMIVDETGLLLPRATAQDAGKWYCSRGNVTTSYHLEITARPVKAHSDLRTGGWKGGGGSGGGGSGGGGSGGGGSQVQLQESGGGLVQAGGSLRLSCVASGSIRSINVMGWYRQAPGKQRELVAACASDGNTYYADSVKGRFTISRDNAEKTVYLQMNNLKPDDTAVYYCDANSRGNYYSGQGTQVTVSSTSGPGGQGAEQKLISEEDLGAHHHHHHGAS | 0.0201 µg/mL | 0.0201 µg/mL and 0.432 nM | 4.87 nM | 0.224 mg/L | – | – | –
2 | CD19 mutant #2-G4Sx4-anti CLEC12a VHH 1G6-myc-His (VHH, CD19 variant-VHH fusion) PEEPLVVKVEEGDTAVLPCLKGTSDGPTQQLTWSRESPLKPFLKYSLGVPGLGVHVRPDAISVVIRNVSQQMGGFYLCQPGPPSEKAWQPGWTVNVEGSGELFRWNVSDLGGLGCGLKNRSSEGPSSPSGKLMSPKLYVWAKDRPEIWEGEPPCLPPRDSLNQSLSQDLTMAPGSTLWLSCGVPPDSVSRGPLSWTHVHPKGPKSLLSLELKDDRPAREMIVDETGLLLPRATAQDAGKWYCSRGNVTTSYHLEITARPVKAHSDLRTGGWKGGGGSGGGGSGGGGSGGGGSQVQLQQSGGGLVQAGGSLRLSCAASGSIFAINEINLMGWYRQAPGKQRELVAACASDGNTYYADSVKGRFTISRDNAEKTVYLQMNNLKPDDTAVYYCDANSRGNYYSGQGTQVTVSSTSGPGGQGAEQKLISEEDLGAHHHHHHGAS | 0.0113 µg/mL | 0.0113 µg/mL and 0.243 nM | 3.4 nM | 0.157 mg/L | – | – | –
3 | #335 (VHH, also called CD19 mutant #2-G4Sx4-anti CLEC12a VHH 2C8-His) fusion protein, single chain: PEEPLVVKVEEGDTAVLPCLKGTSDGPTQQLTWSRESPLKPFLKYSLGVPGLGVHVRPDAISVVIRNVSQQMGGFYLCQPGPPSEKAWQPGWTVNVEGSGELFRWNVSDLGGLGCGLKNRSSEGPSSPSGKLMSPKLYVWAKDRPEIWEGEPPCLPPRDSLNQSLSQDLTMAPGSTLWLSCGVPPDSVSRGPLSWTHVHPKGPKSLLSLELKDDRPAREMIVDETGLLLPRATAQDAGKWYCSRGNVTTSYHLEITARPVKAHSDLRTGGWKGGGGSGGGGSGGGGSGGGGSQVQLVESGGGLVQAGGSLRLSCAASGSIFAINEINLMGWYRQAPGKQRELVAACASDGNTYYADSVKGRFTISRDNAEKTVYLQMNNLKPDDTAVYYCDANSRGNYYSGQGTLVTVSSTSGPGGQGAEQKLISEEDLGAHHHHHHGAS | 0.0108 µg/mL | 0.0108 µg/mL and 0.232 nM | – | – | – | – | –
4 | anti-CLEC12a VHH 1A10-CD19 D1+2 C term mutant #2 (VHH) VHH: QVQLQESGGGLVQVGESLRLSCVVSGDTRSINLMGWYRQAPGKQRELVAACASDGNTYYADSVKGRFTISRDNAEKTVYLQMNNLKPDDTAVYYCDANSRGNYYSGQGTLVTVSS | – | – | – | – | 0.00751 µg/mL | 0.0075 µg/mL and 0.161 nM | –
5 | anti-CLEC12a VHH 1B12-G4Sx4-CD19 D1+2 C term mutant #2-His (VHH) VHH: QVQLQASGGGLVQAGGSLRLSCAASGSIFAINEINLMGWYRQAPGKQRELVAACASDGNTYYADSVKGRFTISRDNAEKTVYLQMNNLKPDDTAVYYCDANSRGNYYSGQGTQVTVSS | – | – | – | – | 0.015 µg/mL | 0.015 µg/mL and 0.323 nM | –
6 | #329 (VHH, also called anti CLEC12a VHH 2F5-G4Sx4-CD19 C-term mutant #2-His) VHH: QVQLQQSGGGLAQTGGSLILSCAASGSIFAINEINLMGWYRQAPGKQRELVAACASDGNTYYADSVKGRFTISRDNAEKTVYLQMNNLKPDDTAVYYCDANSRGNYYSGQGTQVTVSS | – | – | – | – | 0.0107 µg/mL | 0.0107 µg/mL and 0.23 nM | –
7 | CD19 ECD N term mutant#1-EGFR Fn3 (designed binder, also called construct #227; CD19-Fn3/EGFR) PEEPLVVKVEEGDDAWLRCLKGTSDGPTSQVTWSRESPLKPFLKYSLGVPGLGVHIRPLAIGLVIPNVSQQMGGFYLCQPGPPSEKAWQPGWTVNVEGSGELFRWNVSDLGGLGCGLKNRSSEGPSSPSGKLMSPKLYVWAKDRPEIWEGEPPCLPPRDSLNQSLSQDLTMAPGSTLWLSCGVPPDSVSRGPLSWTHVHPKGPKSLLSLELKDDRPAREMIVDETGLLLPRATAQDAGKYYCHRGNRTISYHLEITARPVSAHTPLRTGGWKGGGGSGGGGSGGGGSGGGGSVSDVPRDLEVVAATPTSLLISWFDYAVTYYRITYGETGGNSPVQEFTVPGWISTATISGLKPGVDYTITVYAVTDNSHWPFRSTPISTNYRTEIDKPPQHHHHHH | – | – | – | – | – | – | binding result (EGFR): binds

Second part, led by results:

Row | C of the 4-P fit (midpoint) (Clec12A [1]) | EC50 (Clec12A [1]) | EC50 (Clec12A [2]) | EC50 (Clec12A [3]) | C of the 4-P fit (midpoint) (Clec12A [4]) | EC50 (Clec12A [4]) | Binder | also measured
8 | 0.0106 µg/mL | 0.0106 µg/mL and 0.228 nM | – | – | – | – | #333 (VHH, also called CD19 mutant #2-G4Sx4-anti CLEC12a VHH 1A10-His) fusion protein, single chain: PEEPLVVKVEEGDTAVLPCLKGTSDGPTQQLTWSRESPLKPFLKYSLGVPGLGVHVRPDAISVVIRNVSQQMGGFYLCQPGPPSEKAWQPGWTVNVEGSGELFRWNVSDLGGLGCGLKNRSSEGPSSPSGKLMSPKLYVWAKDRPEIWEGEPPCLPPRDSLNQSLSQDLTMAPGSTLWLSCGVPPDSVSRGPLSWTHVHPKGPKSLLSLELKDDRPAREMIVDETGLLLPRATAQDAGKWYCSRGNVTTSYHLEITARPVKAHSDLRTGGWKGGGGSGGGGSGGGGSGGGGSQVQLQESGGGLVQVGESLRLSCVVSGDTRSINLMGWYRQAPGKQRELVAACASDGNTYYADSVKGRFTISRDNAEKTVYLQMNNLKPDDTAVYYCDANSRGNYYSGQGTLVTVSSTSGPGGQGAEQKLISEEDLGAHHHHHHGAS | –
9 | 0.00983 µg/mL | 0.0098 µg/mL and 0.21 nM | 3.29 nM | 0.151 mg/L | – | – | CD19 mutant #2-G4Sx4-anti CLEC12a VHH 2F5-myc-His (VHH, CD19 variant-VHH fusion) PEEPLVVKVEEGDTAVLPCLKGTSDGPTQQLTWSRESPLKPFLKYSLGVPGLGVHVRPDAISVVIRNVSQQMGGFYLCQPGPPSEKAWQPGWTVNVEGSGELFRWNVSDLGGLGCGLKNRSSEGPSSPSGKLMSPKLYVWAKDRPEIWEGEPPCLPPRDSLNQSLSQDLTMAPGSTLWLSCGVPPDSVSRGPLSWTHVHPKGPKSLLSLELKDDRPAREMIVDETGLLLPRATAQDAGKWYCSRGNVTTSYHLEITARPVKAHSDLRTGGWKGGGGSGGGGSGGGGSGGGGSQVQLQQSGGGLAQTGGSLILSCAASGSIFAINEINLMGWYRQAPGKQRELVAACASDGNTYYADSVKGRFTISRDNAEKTVYLQMNNLKPDDTAVYYCDANSRGNYYSGQGTQVTVSSTSGPGGQGAEQKLISEEDLGAHHHHHHGAS | –
10 | 0.0112 µg/mL | 0.0112 µg/mL and 0.241 nM | – | – | – | – | #334 (VHH, also called CD19 mutant #2-G4Sx4-anti CLEC12a VHH 1B1-His) fusion protein, single chain: PEEPLVVKVEEGDTAVLPCLKGTSDGPTQQLTWSRESPLKPFLKYSLGVPGLGVHVRPDAISVVIRNVSQQMGGFYLCQPGPPSEKAWQPGWTVNVEGSGELFRWNVSDLGGLGCGLKNRSSEGPSSPSGKLMSPKLYVWAKDRPEIWEGEPPCLPPRDSLNQSLSQDLTMAPGSTLWLSCGVPPDSVSRGPLSWTHVHPKGPKSLLSLELKDDRPAREMIVDETGLLLPRATAQDAGKWYCSRGNVTTSYHLEITARPVKAHSDLRTGGWKGGGGSGGGGSGGGGSGGGGSQVQLQESGGGLVQAGGSLRLSCAASGSIFAINEINLMGWYRQAPGKQRELVAACASDGNTYYADSVKGRFTISRDNAEKTVYLQMNNLKPDDTAVYYCDANSRGNYYSGQGTQVTVSSTSGPGGQGAEQKLISEEDLGAHHHHHHGAS | –
11 | – | – | – | – | 0.00648 µg/mL | 0.0065 µg/mL and 0.14 nM | anti-CLEC12a VHH 1B1-G4Sx4-CD19 D1+2 C term mutant #2-His (VHH) VHH: QVQLQESGGGLVQAGGSLRLSCAASGSIFAINEINLMGWYRQAPGKQRELVAACASDGNTYYADSVKGRFTISRDNAEKTVYLQMNNLKPDDTAVYYCDANSRGNYYSGQGTQVTVSS | –
12 | 0.037 µg/mL | 0.037 µg/mL and 0.796 nM | – | – | – | – | #290 (VHH, also called construct #290; CD19 mutant #2-G4Sx4-anti CLEC12a VHH 1H1-His) fusion protein, single chain: PEEPLVVKVEEGDTAVLPCLKGTSDGPTQQLTWSRESPLKPFLKYSLGVPGLGVHVRPDAISVVIRNVSQQMGGFYLCQPGPPSEKAWQPGWTVNVEGSGELFRWNVSDLGGLGCGLKNRSSEGPSSPSGKLMSPKLYVWAKDRPEIWEGEPPCLPPRDSLNQSLSQDLTMAPGSTLWLSCGVPPDSVSRGPLSWTHVHPKGPKSLLSLELKDDRPAREMIVDETGLLLPRATAQDAGKWYCSRGNVTTSYHLEITARPVKAHSDLRTGGWKGGGGSGGGGSGGGGSGGGGSQVQLQESGGGLVQPGGSLRLSCAASGFTFNSYAMTWVRQAPGKGLEWVSDINSGGGSTNYADSVKGRFTISRDNAKNTLYLQMNSLKPEDTAVYYCATELRGSDYYRGPIREYAYWGQGTLVTVSSTSGPGGQGAEQKLISEEDLGAHHHHHHGAS | –
13 | – | – | 3.76 nM | 0.173 mg/L | – | – | CD19 mutant #2-G4Sx4-anti CLEC12a VHH 2F3-myc-His (VHH, CD19 variant-VHH fusion) PEEPLVVKVEEGDTAVLPCLKGTSDGPTQQLTWSRESPLKPFLKYSLGVPGLGVHVRPDAISVVIRNVSQQMGGFYLCQPGPPSEKAWQPGWTVNVEGSGELFRWNVSDLGGLGCGLKNRSSEGPSSPSGKLMSPKLYVWAKDRPEIWEGEPPCLPPRDSLNQSLSQDLTMAPGSTLWLSCGVPPDSVSRGPLSWTHVHPKGPKSLLSLELKDDRPAREMIVDETGLLLPRATAQDAGKWYCSRGNVTTSYHLEITARPVKAHSDLRTGGWKGGGGSGGGGSGGGGSGGGGSQVQLQAFGGGLVQPGGSLRLSCVVSGTMFSGKDVNWLRQAPGKHVEVVATVSSDGGTDYADFVKGRFTISRDDAKNTVNLQMNSLEPEDTANYMCHFLWGRHYWGQGTQVTVSSTSGPGGQGAEQKLISEEDLGAHHHHHHGAS | –
